# Data: patent EP1616575B1 (ZymoGenetics, Inc., dated 2012)
# T1: IL-20RA/IL-20RB heterodimeric receptor (human, UniProt Q9UHF4 30-553; Q6UXL0 30-311)
# T1 construct: Both subunits co-expressed on cells: transfected COS, BHK and BaF3 cells, and endogenous on HaCaT keratinocytes; also called IL-20 receptor; IL-20RB-IL-20RA heterodimer
# T1 sequence 1: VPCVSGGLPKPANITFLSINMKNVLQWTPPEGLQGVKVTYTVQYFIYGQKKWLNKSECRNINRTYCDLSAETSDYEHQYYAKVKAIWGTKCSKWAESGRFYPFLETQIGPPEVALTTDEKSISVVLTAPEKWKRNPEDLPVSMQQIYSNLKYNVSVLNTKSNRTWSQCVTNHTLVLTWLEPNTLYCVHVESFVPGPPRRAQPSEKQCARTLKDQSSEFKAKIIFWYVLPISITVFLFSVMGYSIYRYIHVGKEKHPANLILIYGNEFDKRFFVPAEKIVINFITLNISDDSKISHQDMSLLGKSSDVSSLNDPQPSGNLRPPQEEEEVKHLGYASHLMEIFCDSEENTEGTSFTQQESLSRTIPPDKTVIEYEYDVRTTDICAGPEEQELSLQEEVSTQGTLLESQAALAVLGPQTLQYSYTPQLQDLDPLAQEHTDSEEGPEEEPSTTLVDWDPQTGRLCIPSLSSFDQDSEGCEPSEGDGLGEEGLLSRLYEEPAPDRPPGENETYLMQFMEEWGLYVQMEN
# T1 sequence 2: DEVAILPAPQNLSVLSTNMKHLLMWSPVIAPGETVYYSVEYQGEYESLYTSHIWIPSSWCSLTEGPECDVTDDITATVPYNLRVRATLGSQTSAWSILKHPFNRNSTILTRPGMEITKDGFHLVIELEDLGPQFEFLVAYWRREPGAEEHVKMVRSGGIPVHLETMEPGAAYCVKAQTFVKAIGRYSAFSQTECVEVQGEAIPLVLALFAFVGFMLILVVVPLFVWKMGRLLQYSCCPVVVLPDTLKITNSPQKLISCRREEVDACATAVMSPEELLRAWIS
# T2: IL-20RA (human, UniProt Q9UHF4 30-553)
# T2 construct: Expressed alone on stably transfected BHK cells; also called Zcytor7; IL-20RA receptor subunit alone
# T2 sequence: T1 sequence 1
# T3: IL-20RB (human, UniProt Q6UXL0 30-311)
# T3 construct: Expressed alone on stably transfected BHK cells; also called IL-20RB receptor subunit alone
# T3 sequence: T1 sequence 2
# B1: IL-20 (ligand, UniProt Q9NYY1 25-176, looked up)
# chain: LKTLNLGSCVIATNLQEIRNGFSEIRGSVQAKDGNIDIRILRRTESLQDTKPANRCCLLRHLLRLYLDRVFKNYQTPDHYTLRKISSLANSFLTIKKDLRLCHAHMTCHCGEEAMKKYSQILSHFEKLEPQAAVVKALGELDILLQWMEETE
# notes: also called Zcyto10; biotin-labeled IL-20 protein
# How the values were obtained:
# [1] = target: T1, IL-20RA/IL-20RB heterodimeric receptor; experiment: 125I-IL-20 binding to BHK cells stably transfected with IL-20RA and IL-20RB
# [2] = target: T2, IL-20RA; experiment: radiolabeled IL-20 binding to BHK cells stably transfected with IL-20RA alone
# [3] = target: T3, IL-20RB; experiment: radiolabeled IL-20 binding to BHK cells stably transfected with IL-20RB alone
binder,measurement,setting,value
B1,Kd,[1],~1.5 nM
same,binding result,[2],no binding
same,binding result,[3],no binding
